According to article PMC4877809:

Target: CotB3 (class I P450 hydroxylase of the cyclooctatin pathway) (Streptomyces melanosporofaciens MI614-43F2) (UniProt C9K1X6)
UniProt C9K1X6, sequence (C9K1X6 whole entry): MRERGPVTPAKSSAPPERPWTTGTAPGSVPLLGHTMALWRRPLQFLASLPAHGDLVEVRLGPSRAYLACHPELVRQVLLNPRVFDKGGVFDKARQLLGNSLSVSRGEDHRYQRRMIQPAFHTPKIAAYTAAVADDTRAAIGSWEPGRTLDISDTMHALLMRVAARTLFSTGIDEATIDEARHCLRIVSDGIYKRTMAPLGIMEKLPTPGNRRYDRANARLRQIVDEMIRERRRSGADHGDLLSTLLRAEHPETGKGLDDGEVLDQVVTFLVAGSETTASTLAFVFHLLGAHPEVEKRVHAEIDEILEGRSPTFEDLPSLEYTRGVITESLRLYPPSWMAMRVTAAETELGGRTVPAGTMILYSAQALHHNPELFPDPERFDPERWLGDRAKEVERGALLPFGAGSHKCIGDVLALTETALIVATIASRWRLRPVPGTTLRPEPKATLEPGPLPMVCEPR

Substance: Pdx-W106E (putidaredoxin, ferredoxin of the Pseudomonas putida PdR·Pdx redox system, W106E mutant) (natural protein)
- whole cell catalysis in E. coli (CotB3 with PdR/Pdx-W106E): formation of cyclooctat-9-en-5,7-diol from added cyclooctat-9-en-7-ol, GC-MS: 100%
